Results taken from the supplement of paper PMC10567573.

B1: TMEM106C (parent)
chain: SEQLVNFTGKAEMGGPFSYVYFFC
B2: STEAP1 (parent)
chain: LWKMKPRRNLEEDDYLHKDTGETS

Variants of: B1
Test: protein stability index of a GFP-peptide fusion (GPS, HEK-293T) (PSI 1-6); higher = more stable
Conditions: c terminus: a fixed tail appended
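Also: lentivirally expressed fusions sorted by FACS into six bins by GFP to DsRed ratio, PSI derived from sequencing read proportions per bin multiplied by bin number.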

Protein stability index of substitutions, site by site:
L4: W 2.2; D 2.39; N 3.12; E 2.62; F 2.75; K 3.49; T 3.41; P 2.07; C 1.94; S 2.11; H 4.32; I 2.74; A 2.54; Q 1.93; Y 3.31
Q3: K 2.79; M 2.52; C 2.98; R 2.4; V 3.16; I 2.94; E 2.57; Y 2.99; D 3.39; G 3.44; T 2.79; H 3.21; N 3.22; L 3.56; W 3.02; S 2.73; F 2.76; A 1.85
V5: L 3.05; F 2.76; D 3.94; H 2.52; M 2.83; E 1.79; C 2.67; G 1.26; K 3.06; A 2.95; I 3.42
S1: V 3.6; A 2.51; F 2.65; P 2.9; L 3.63; H 3.23; C 2.6; I 3.37; R 3.55; W 2.49; Y 1.72; M 3.28; D 1.62; E 2.98; Q 2.63; K 2.67; T 3.09; G 3.79; N 2.85
E2: I 3; S 1.47; L 1.91; V 2.69; D 3.75; R 2.85; Q 2.65; A 2.44; W 2.95; Y 2; H 2.8; T 2.64; F 3.3; M 3.48; N 3.28; C 2.18; P 3.82; K 2.29; G 2.88

Variants of: B2
Test: as above
Conditions: c terminus: a fixed tail appended

Protein stability index: each site, then its substitutions
T20: F 3.51; H 4.26; Y 3.74; S 4.19; K 3.6; W 3.85; G 4.58; D 5.09; I 4.12; C 4.31; A 4.39; N 4.46; L 4.13; P 4.51; V 4.05; M 3.84; R 4.44; Q 4.71; E 4.8
E22: V 3.86; N 4.22; K 3.83; Q 4.11; S 4.08; L 4.13; R 3.69; M 3.85; A 3.92; H 3.89; C 4; F 3.83; T 3.7; Y 3.46; D 4.47; G 4.37; I 3.73; W 2.56; P 3.98
H17: M 4.29; W 3.84; R 4.41; S 4.54; Y 4.38; T 4.82; P 4.8; A 4.93; L 4.09; N 4.28; V 4.71; C 4.32; E 4.35; D 4.94; Q 4.68; K 4.38; F 4.16; G 4.5; I 4.11
D13: T 4.19; H 3.88; M 3.8; Q 4.63; F 3.83; N 4.35; S 3.85; E 4.84; W 3.21; K 4.43; Y 4.17; G 4.61; P 4.45; R 4.15; A 3.94; C 3.65; I 3.84; V 3.87; L 3.88
Y15: N 4.57; M 4.68; F 4.14; H 4.66; Q 4.92; C 4.66; V 5.07; E 4.77; L 4.33; P 4.81; A 5.02; R 4.53; T 5.04; K 4.84; G 4.83; S 5.16; W 4.26; I 3.61; D 5.15
T23: W 3.54; M 3.99; K 4.73; S 4.77; N 4.37; A 4.63; F 3.92; V 4.12; R 4.48; D 4.59; H 4.4; G 4.26; L 4.12; C 4.05; Q 4.52; I 3.53; Y 4.02; E 5.03; P 4.92
K18: F 3.38; P 4.47; N 4.51; M 4.29; G 4.73; Q 4.46; A 5.12; E 4.87; T 4.6; R 4.75; L 3.93; I 3.58; V 4.21; D 4.7; Y 4.03; C 4.28; S 4.53; H 4.62; W 3.81
G21: M 3.93; H 4.42; K 4.26; W 3.15; C 4.21; Q 4.33; E 4.65; S 4.59; P 4.77; R 3.89; V 3.64; T 4.49; I 3.31; A 4.65; L 3.91; N 4.36; F 3.92; D 4.25; Y 4.08
D14: N 4.4; E 4.63; W 3.11; L 3.8; G 4.31; R 4.7; K 4.53; S 4.18; Y 3.87; P 4.34; Q 4.32; I 3.84; C 4.23; V 4.07; A 4.21; M 4; T 4.46; F 3.74; H 4.18
E11: W 3.22; T 4.15; V 4.28; S 4.06; Y 3.09
L16: Y 4.14; M 4.24; Q 4.87; G 5.08; W 4.19; A 4.74; V 4.52; N 4.97; I 4.23; H 4.36; S 4.6; P 4.2; D 4.92; T 4.74; F 4.26; C 4.63; K 4.59; R 4.1; E 4.79
S24: P 4.3; K 4.47; G 4.46; Q 3.85; E 4.52; F 4.22; R 3.97; T 4.6; H 4.31; L 4.1; N 4.72; A 4.61; V 4.38; M 4.16; Y 4.11; W 3.5; C 3.89; D 4.65; I 3.96
D19: M 3.81; E 4.41; Y 3.81; V 3.43; Q 4.1; K 4.23; G 4.45; C 3.8; P 4.36; N 4.39; T 3.83; L 3.33; H 3.83; F 3; R 4.09; A 3.94; S 3.48; I 3.46; W 2.87
E12: F 3.51; V 4.09; Y 3.3; N 4.15; A 4.06; L 3.74; P 4.26; Q 4.23; W 3.16; R 4.07; I 3.66; C 3.96; T 4.28; K 4.25; G 4.16; D 4.46; S 4.45; H 3.75; M 3.63
